According to patent US20170145086A1 (VISTERRA, published 2017):

T1: human Tweak (TNFSF12; Abcam) (human, UniProt O43508 94-249, limits assumed)
T1 sequence (looked up): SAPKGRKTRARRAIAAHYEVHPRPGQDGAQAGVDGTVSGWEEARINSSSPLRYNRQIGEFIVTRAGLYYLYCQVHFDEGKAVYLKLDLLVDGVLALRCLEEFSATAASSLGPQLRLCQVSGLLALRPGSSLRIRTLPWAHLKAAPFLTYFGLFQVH

T2: HA-GCN4 hAPRIL (amino acid residues 105-250) (human, UniProt O75888 105-250)
T2 construct: Bought (R&D Systems); also called HA-tagged GCN4 human APRIL; HA-GCN4-huAPRIL; not shown: N-terminal HA tag; GCN4 isoleucine zipper oligomerization domain
T2 sequence: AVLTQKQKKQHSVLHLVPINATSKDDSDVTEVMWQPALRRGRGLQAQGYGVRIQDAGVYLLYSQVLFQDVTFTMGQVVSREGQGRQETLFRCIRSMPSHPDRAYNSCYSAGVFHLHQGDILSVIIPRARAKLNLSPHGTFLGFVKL

B1: monoclonal antibody 4540 (antibody, V domains shown)
VH: QVQLQQSGPELVKPGASVKISCKASGYTFADYYINWVKQRPGQGLEWIGWIFPGSGSTYYNEKFKGKATLTVDKSSSTAYMLLSSLTSEDSAVYFCARGDSGRAMDYWGQGTSVTVSS
VL: DIQMTQSPSSLSASLGGKVTITCKASQDINKYIAWYQHKPGKGPRLLIHYTSTLQSGIPSRFSGSGSGRDYSFSISNLEPEDNATYYCLQYDNLLTFGAGTKLELK
notes: mouse-derived
B2: monoclonal antibody 2218 (antibody, mouse IgG2, V domains shown)
VH: DVQLQESGPGLVKPSQSLSLTCSVTGYSITSGYYWNWIRQFPGNKLEWMGYISYDGYNNYNPSLKNRISITRDTSKNQFFLKLNSVTTEDTATYYCANYYDYEDWYFGVWGTGTTVTVSS
VL: DIVLTQSPASLAMSLGKRATISCRASESVSIIGTNSIHWYQQKPGQPPKLLIYHASNLETGVPARFSGSGSRTDFTLTIDPVEEDDVAIYYCLQSRKIPYTFGGGTKLEIK
B3: monoclonal antibody 3530 (antibody, mouse IgG2, V domains shown)
VH: QVQLQQSGAELVRPGASVKLSCKASGYTFTDHEMHWVRQTPVHGLEWIGVIDPDTGDTTYNQKFKGKATLTADKSSSTAYMDLRSLTSEDSAVFYCTRWTGGDYWGHGTTLTVSS
VL: DAVMTQTPLSLSVTIGQPASISCKSSQSLLYSDGKTYLNWFQQRPGQSPKRLMYQVSKLDPGIPDRFSGSGSETDFTLKISRVEAEDLGVYYCLQGTYYPYTFGSGTKLEIK
B4: monoclonal antibody 3631 (antibody, V domains shown)
VH: EIQLQQSGPELVKPGASVKVSCKASGYSFTDYNIYWVKQSHGKSLEWIGYIDPSNGGPGYNQKFRGKATLTVDKSSSTAFLHLNSLTSEDSAVYYCARRDNYGSGTMDYWGQGTSVTVSS
VL: DIVMTQSQKFMSTSVGDRVSITCKASQNVGTDVSWYQQKPGKSPKPLIYWASNRFTGVPDRFIGSGSGTDFTLTISNVQSEDLADYFCEQYSIYPLTFGAGTKLELK
notes: mouse-derived
B5: monoclonal antibody 3732 (antibody, V domains shown)
VH: EIQLQQSGPELVKPGASVKVSCKASGYSFTDDNMYWVKQSHGKSLEWIGYIDPLNGGTGYNQKFKGKATLTVDKSSSTAFLHLNSLTSEDSAVYYCARRDNYATGTMDYWGQGTSVTVSS
VL: DIVMTQSQKFMSTSVGDRVSITCKASKNVGTDVSWYQQKPGKSPKPLIYWASNRFTGVPDRFTGSGSGTDFTLTINNVQSEDLADYFCEQYSSYPLTFGAGTKLELK
notes: mouse-derived
B6: monoclonal antibody 3833 (antibody, V domains shown)
VH: QVQLQQSGAELVRPGTSVKMSCKAAGYTFTNYWIGWVKQRPGHGLEWIGDIYPGGIGGGYTKYNEKFKGKATLTADTSSSTAYMQLGSLTSEDSAIYFCSRSETGRAMDYWGQGTSVTVSS
VL: DIQMTQSPSSLSASLGGKVTITCKASQDINKYIAWYQHKPGKGPRLLIHYTSTLKPGIPSRFSGSGSGRDYSFSISDLEPEDIATYYCLQYDNLNTFGGGTKLEIK
notes: mouse-derived
B7: 4237 (antibody, V domains shown)
VH: QAHLKESGPGLVAPSQSLSITCTVSGFSLTDYDVHWVRQSPGKGLEWLGVIWNDGSTDYNTAFISRLTISKDNSKSQVFFKMNSLQADDTAIYYCARNWYGGYWFAYWGQGTLVTVSA
VL: DIQMTQSPASLSASAGETVTITCRSSENIYSYLAWYQQKQGKSPQLLVYNANALAEGVPSRFSGSGSVTQFSLKINSLQPEDFGSYYCQHHYGTPFTFGSGTKLEIK
notes: also called monoclonal antibody 4237

How the values were obtained:
[1] = biological target: human TNFα (TNFSF2; Adipogen) (human, UniProt P01375 85-233, limits assumed); test: indirect ELISA, cytokine coated
Procedure: (§1) Selected anti-APRIL antibodies were evaluated for potential cross-reactivity with other members of the TNFa superfamily (TNFSF) family of cytokines, including: human TNFα (TNFSF2; Adipogen), human […] (TNFSF4, Adipogen), human FasL (TNFSF6, Adipogen), human TRAIL (TNFSF10, Adipogen), human RANKL (TNFSF11; Adipogen), human Tweak (TNFSF12; Abcam), human and mouse BAFF (TNFSF13B, AB Biosciences and Adipogen, respectively), and human LIGHT (TNFSF14, Adipogen). These cytokines share variable degree of sequence as well as higher order structural homologies. Among them, BAFF appears to be the most closely related to APRIL, with 29% identity and 53% amino acid sequence similarity.
(§2) Binding was evaluated by an indirect ELISA protocol using similar methods described for evaluation of APRIL binding; cytokines were immobilized to ELISA plate at 50 ng per well and then exposed to a solution of each of the test antibodies at a fixed concentration of 10 μg/ml Anti-human or anti-mouse Ig-HRP polyclonal antibody conjugates (Jackson Laboratories) were used for detection of antibody binding. The results presented in FIG. 36 indicated eleven of the twelve antibodies tested in this assay to specifically bind APRIL with no measurable cross-reactivity with the other TNFSF members substantially above assay background.

[2] = biological target: human TRAIL (TNFSF10, Adipogen) (human, UniProt P50591 95-281, limits assumed); test: indirect ELISA, cytokine coated
Procedure: as §1, §2

[3] = biological target: T1, human Tweak (TNFSF12; Abcam); test: indirect ELISA, cytokine coated
Procedure: as §1, §2

[4] = biological target: human LIGHT (TNFSF14, Adipogen) (human, UniProt O43557 89-240, limits assumed); test: indirect ELISA, cytokine coated
Procedure: as §1, §2

[5] = biological target: T2, HA-GCN4 hAPRIL (amino acid residues …); test: blocking ELISA; blocked: human APRIL binding to human TACI-Fc; parameters: concentration or dose not given beside the values
Procedure: (§3) FIGS. 19A-19B depict the antibody inhibition of APRIL binding to TNFSF receptors TACI (FIG. 19A) and BCMA (FIG. 19B). Assay is based on blocking ELISA using recombinant human APRIL (R&D Systems) and Human TACI-Fc. Inhibition was analyzed by non-linear regression using a four parameter fit.
(§4) Recombinant TACI-Fc or BCMA-Fc was coated on 96 well plates in 0.1 M carbonate-bicarbonate buffer (pH 9.6), overnight at 4° C. Plates were washed three times with 1×PBST (PBS+0.025% Tween 20) followed by blocking with 1% BSA in 1×PBS, 37° C. for 1 hour. All subsequent wash steps were carried out with 1×PBST. To assess antibody blocking, either 15 ng/mL or 50 ng/mL HA-GCN4-huAPRIL was preincubated with varying antibody concentrations ranging from 0.03-30 μg/mL in binding buffer comprised of 1% BSA and 0.025% Tween-20 in 1×PBS. Preincubation was carried out at 30° C. for 1 hour with mixing. Antibody-APRIL premix with 50 ng/mL APRIL or 15 ng/mL APRIL was then added to TACI-Fc coated or BCMA-Fc coated plates, respectively, and incubated for an additional hour at 30° C. HA-tagged APRIL binding to either receptor was quantified using a goat polyclonal anti-HA tag-HRP antibody (Abcam) added at a 1:10000 dilution followed by colorimetric development using 100 μl/well of freshly prepared TMB substrate (KPL) carried out for up to 30 minutes at room temperature before quenching enzymatic reaction by the addition of 1N sulfuric acid. ELISA signal was quantified by absorbance at 450 nm. ELISA data was analyzed by non-linear regression. IC₅₀ values were calculated based on a 4 parameter fit of antibody titration curves. […] Non-blocking antibodies Aprly-1 or Aprly-5 (Enzo Biosciences) were used as negative controls. Mouse specific, blocking antibody aprily-1-1 (Adipogen) was generally used as a positive control in experiments using mouse APRIL (HA-GCN4-mAPRIL).

[6] = biological target: T2, HA-GCN4 hAPRIL (amino acid residues …); test: blocking ELISA, 4-parameter fit; blocked: human APRIL binding to human BCMA-Fc
Procedure: as §3, §4

[7] = biological target: T2, HA-GCN4 hAPRIL (amino acid residues …); test: blocking ELISA, 4-parameter fit; blocked: human APRIL binding to human TACI-Fc
Procedure: as §3, §4

[8] = biological target: T2, HA-GCN4 hAPRIL (amino acid residues …); test: indirect ELISA on human APRIL; column head prints IC50 (pM), legend paragraph 725 calls the values EC50
Excerpt: Purified antibodies were further characterized for APRIL binding, APRIL species cross reactivity (human APRIL vs. mouse APRIL), and receptor blocking activity using TACI-Fc. For binding, an APRIL-based indirect ELISA was used to determine by first approximation the relative affinity of purified anti-APRIL antibodies to either human APRIL or mouse APRIL. ELISA method was as generally described above. […] Blocking and wash steps were completed as described. Binding of anti-APRIL antibodies to APRIL was quantified using an 8 point dilution of test antibody that spanned over a four log scale. Antibody binding to APRIL was detected using a rabbit anti-mouse IgG (H+L)-HRP conjugate (Jackson ImmunoResearch Laboratories). Antibody binding data was analyzed by non-linear regression analysis using a 3 parameter fit to determine max binding and apparent EC₅₀ values. […] Mouse specific antibody Apry-1-1 (Adipogen) was likewise used for quantification of antibody binding to mouse APRIL.

Chain of human LIGHT (TNFSF14, Adipogen) (O43557 89-240 limits assumed): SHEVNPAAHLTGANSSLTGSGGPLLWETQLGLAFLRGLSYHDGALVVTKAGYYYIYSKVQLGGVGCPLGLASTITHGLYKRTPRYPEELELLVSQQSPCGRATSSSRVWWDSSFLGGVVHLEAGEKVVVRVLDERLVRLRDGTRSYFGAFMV
Chain of human TNFα (TNFSF2; Adipogen) (P01375 85-233 limits assumed): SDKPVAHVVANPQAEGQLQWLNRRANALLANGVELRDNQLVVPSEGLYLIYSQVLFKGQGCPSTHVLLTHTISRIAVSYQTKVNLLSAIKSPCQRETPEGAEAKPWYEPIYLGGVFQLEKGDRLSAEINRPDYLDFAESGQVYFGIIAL
Chain of human TRAIL (TNFSF10, Adipogen) (P50591 95-281 limits assumed): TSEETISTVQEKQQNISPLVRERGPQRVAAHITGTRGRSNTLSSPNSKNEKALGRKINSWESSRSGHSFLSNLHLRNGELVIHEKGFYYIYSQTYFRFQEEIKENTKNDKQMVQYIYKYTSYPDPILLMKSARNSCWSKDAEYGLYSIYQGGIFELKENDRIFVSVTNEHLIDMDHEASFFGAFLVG

Binder	binding result [1]	binding result [2]	binding result [3]	binding result [4]	% Inhibition [5]	IC50 [6]	IC50 [7]	EC50 [8]
B1	no binding (tested: 10 µg/ml (p-1128))	no binding (tested: 10 µg/ml (p-1128))	no binding (tested: 10 µg/ml (p-1128))	no binding (tested: 10 µg/ml (p-1128))	65%	0.66 nM	1.01 nM	0.0129 nM
B2	no binding (tested: 10 µg/ml (p-1128))	no binding (tested: 10 µg/ml (p-1128))	no binding (tested: 10 µg/ml (p-1128))	no binding (tested: 10 µg/ml (p-1128))	40%	0.31 nM	0.98 nM	0.005 nM
B3	no binding (tested: 10 µg/ml (p-1128))	no binding (tested: 10 µg/ml (p-1128))	no binding (tested: 10 µg/ml (p-1128))	no binding (tested: 10 µg/ml (p-1128))	89%	0.48 nM	2.9 nM	0.0489 nM
B4	no binding (tested: 10 µg/ml (p-1128))	no binding (tested: 10 µg/ml (p-1128))	no binding (tested: 10 µg/ml (p-1128))	no binding (tested: 10 µg/ml (p-1128))	63%	0.48 nM	0.27 nM	0.0166 nM
B5	no binding (tested: 10 µg/ml (p-1128))	no binding (tested: 10 µg/ml (p-1128))	no binding (tested: 10 µg/ml (p-1128))	no binding (tested: 10 µg/ml (p-1128))	–	0.22 nM	–	0.0072 nM
B6	no binding (tested: 10 µg/ml (p-1128))	no binding (tested: 10 µg/ml (p-1128))	no binding (tested: 10 µg/ml (p-1128))	no binding (tested: 10 µg/ml (p-1128))	72%	2.7 nM	2.25 nM	0.0175 nM
B7	no binding (tested: 10 µg/ml (p-1128))	no binding (tested: 10 µg/ml (p-1128))	no binding (tested: 10 µg/ml (p-1128))	no binding (tested: 10 µg/ml (p-1128))	95%	0.56 nM	0.9 nM	0.0126 nM
